In one experiment the target is GFP-EB1 (human) (human) (UniProt Q15691). Put plainly: TIRF microscopy of reconstituted dynamic microtubules.
Experiment [1] deals with biotinylated EB1 (mouse end-binding protein 1) (mouse) (UniProt Q61166). Put plainly: pull-down.
For experiment [2], the target named is microtubules of tubulin purified from bovine brain (bovine) (UniProt Q6B856). Put plainly: co-sedimentation. The conditions noted are these: scale: molecule per 100 dimers of polymerized tubulin.

We go through two substances from publication PMC5042579.

Chain of GFP-EB1 (human) (human) (Q15691 whole entry): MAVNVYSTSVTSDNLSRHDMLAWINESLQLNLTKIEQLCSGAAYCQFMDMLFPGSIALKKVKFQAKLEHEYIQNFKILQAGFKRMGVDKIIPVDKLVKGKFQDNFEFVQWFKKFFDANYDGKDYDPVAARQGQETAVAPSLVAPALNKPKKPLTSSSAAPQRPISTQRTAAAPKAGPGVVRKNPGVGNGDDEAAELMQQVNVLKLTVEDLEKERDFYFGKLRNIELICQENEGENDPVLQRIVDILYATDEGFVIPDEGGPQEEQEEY
Chain of biotinylated EB1 (mouse end-binding protein 1) (mouse) (Q61166 whole entry): as the sequence (Q15691 whole entry) above, with D123E, N147S, T154G, S157T, S165A, A170T, V179M, N201K counted along it

Substance “P2R′-tau (tau fragment from P2 to R′) (from UniProt P10636-7 169-371) (domain or fragment)” came in with a GFP-EB1 comet intensity at microtubule ends with 75 nM tau protein with GFP-EB1 (human) (human) of 7 a.u.

Take “S262E-tau (phosphomimetic tau, serine 262 replaced by glutamate) (natural protein)”: in experiment [1], the percent bound to EB1 compared with tau is 50.1%. Also, in experiment [2], the tau molecules bound per 100 dimers of polymerized tubulin amounted to 1.
